The values below come from patent publication US20250084169A1 (published 2025).

For assay [1], the target named is T1, recombinant human Fc gamma RIIb/c (CD32b/c) (human, UniProt P31994 46-217).
T1 sequence (looked up): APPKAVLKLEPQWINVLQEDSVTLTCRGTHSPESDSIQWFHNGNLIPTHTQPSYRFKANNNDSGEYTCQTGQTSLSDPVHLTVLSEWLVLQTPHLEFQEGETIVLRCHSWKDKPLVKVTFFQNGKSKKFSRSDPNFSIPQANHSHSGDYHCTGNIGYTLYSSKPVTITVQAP

Assay [2] deals with T2, recombinant human Fc gamma RIIa (CD32a) 131R (human, UniProt P12318 36-218).
T2 sequence (looked up): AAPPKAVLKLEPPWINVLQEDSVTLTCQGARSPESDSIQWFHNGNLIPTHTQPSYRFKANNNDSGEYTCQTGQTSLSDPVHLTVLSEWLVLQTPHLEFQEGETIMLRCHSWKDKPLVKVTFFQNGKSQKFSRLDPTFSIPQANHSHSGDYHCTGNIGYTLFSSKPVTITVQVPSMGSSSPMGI

Assay [3] deals with T3, recombinant human Fc gamma RI (CD64) (human, UniProt P12314 16-288).
T3 sequence (P12314 16-288 limits assumed): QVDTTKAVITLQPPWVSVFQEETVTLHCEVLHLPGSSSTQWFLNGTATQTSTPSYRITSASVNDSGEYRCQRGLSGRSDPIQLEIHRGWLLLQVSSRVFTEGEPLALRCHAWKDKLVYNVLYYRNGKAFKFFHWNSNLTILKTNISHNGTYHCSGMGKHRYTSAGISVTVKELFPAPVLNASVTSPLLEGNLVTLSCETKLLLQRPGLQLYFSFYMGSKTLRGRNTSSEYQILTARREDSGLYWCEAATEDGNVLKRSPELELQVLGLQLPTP
In assay [4] the target is T4, recombinant human Fc gamma RIIIa (CD16a) 158F (human, UniProt P08637 17-208).
T4 sequence (P08637 17-208 limits assumed): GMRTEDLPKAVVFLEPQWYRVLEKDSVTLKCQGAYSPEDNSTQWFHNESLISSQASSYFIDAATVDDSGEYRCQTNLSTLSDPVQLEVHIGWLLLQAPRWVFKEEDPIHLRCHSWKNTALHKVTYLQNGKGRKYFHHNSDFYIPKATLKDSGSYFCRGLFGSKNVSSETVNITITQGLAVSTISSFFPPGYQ
Assay [5] has as its target T5, recombinant human Fc gamma RIIIa (CD16a) 158V (human, UniProt P08637 17-208).
Assay [6] addresses T6, recombinant human Fc gamma RIIIb (CD16b) (human, UniProt O75015 17-200).
Assay [7] addresses T1, recombinant human Fc gamma RIIb/c …. This is another data set of the same source.
In assay [8] the target is T4, recombinant human Fc gamma RIIIa …. This is another data set of the same source.
Assay [9] addresses T5, recombinant human Fc gamma RIIIa …. This is another data set of the same source.
Assay [10] concerns the target T6, recombinant human Fc gamma RIIIb (CD16b). The source holds these as a separate data set.
Assay [11] concerns the target T2, recombinant human Fc gamma RIIa (CD32a) …. The source holds these as a separate data set.
The target in assay [12] is T7, recombinant human Fc gamma RIIa (CD32a) 131H (human, UniProt P12318 36-218).
T7 sequence (looked up): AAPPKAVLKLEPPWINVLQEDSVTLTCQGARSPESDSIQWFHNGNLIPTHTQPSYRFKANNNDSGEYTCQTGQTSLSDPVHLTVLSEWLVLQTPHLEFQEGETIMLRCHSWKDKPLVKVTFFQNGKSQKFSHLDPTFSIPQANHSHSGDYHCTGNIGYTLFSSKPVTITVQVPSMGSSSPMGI

In assay [13] the target is T8, CD20 Lipoparticles (Homo sapiens (Human), UniProt P11836 1-297).
T8 sequence: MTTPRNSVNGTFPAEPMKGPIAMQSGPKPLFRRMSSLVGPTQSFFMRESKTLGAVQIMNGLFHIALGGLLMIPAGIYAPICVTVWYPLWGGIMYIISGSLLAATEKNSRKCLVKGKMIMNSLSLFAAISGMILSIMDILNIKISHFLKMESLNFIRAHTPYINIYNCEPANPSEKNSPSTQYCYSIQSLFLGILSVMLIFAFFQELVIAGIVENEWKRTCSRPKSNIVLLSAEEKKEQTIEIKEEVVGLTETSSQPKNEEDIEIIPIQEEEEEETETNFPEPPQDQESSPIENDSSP

Assay [14] deals with T3, recombinant human Fc gamma RI (CD64). The source holds these as a separate data set.

The term Kd denotes the free concentration of one partner at which half of the binding sites on the other are occupied at equilibrium, for simple one-to-one binding.

Where two headings read alike, the source gives them in different places.

T5 sequence (P08637 17-208 F176V limits assumed): as the sequence (P08637 17-208 limits assumed) above, with F160V counted along it
T6 sequence (O75015 17-200 limits assumed): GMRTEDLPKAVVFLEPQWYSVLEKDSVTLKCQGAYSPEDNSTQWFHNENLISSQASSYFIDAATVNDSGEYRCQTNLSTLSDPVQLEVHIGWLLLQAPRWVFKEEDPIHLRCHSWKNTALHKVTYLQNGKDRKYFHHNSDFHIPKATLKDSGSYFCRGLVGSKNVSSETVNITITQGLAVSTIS

B1: HB2174 (bispecific antibody, human IgG1, kappa)
heavy 1: QVQLVQSGGGVVQPGRSLRLSCAASGVSLPDYGVSWVRKAPGKGLEWVAVIWGSETTYYNSALKSRFTISRDNSKNTLYLQMSSLRAEDTAVYYCAKHYYYGGSFAMDYWGQGTLVTVSSASTKGPSVFPLAPSSKSTSGGTAALGCLVKDYFPEPVTVSWNSGALTSGVHTFPAVLQSSGLYSLESVVTVPSSSLGTQTYICNVNHKPSNTKVDKKVEPKSCTDWSPYADQSIKVRISLKSALGDKAYEWNDNEMYLFRSSVAYAMRQYFLKVKNQMILFGEEDVRVANLKPRISFNFFVTAPKNVSDIIPRTEVEKAIRMSRSRINDAFRLNDNSLEFLGIQPTLGPPNQPPVSTSTSPTRSMAPGAVHLPQPVSTRDKTHTCPPCPAPELLGGPSVFLFPPKPKDTLMISRTPEVTCVVVDVSHEDPEVKFNWYVDGVEVHNAKTKPREEQYNSTYRVVSVLTVLHQDWLNGKEYKCKVSNKALPAPIEKTISKAKGQPREPQVCTLPPSRDELTKNQVSLSCAVKGFYPSDIAVEWESNGQPENNYKTTPPVLDSDGSFFLVSKLTVDKSRWQQGNVFSCSVMHEALHNRFTQKSLSLSPG
heavy 2: not shown
light 1: DIQMTQSPSSLSASVGDRVTITCRASQDISKYLNWYQEKPGKAIKLLIYHTSRLHSGVPSRFSGSGSGTDFTLTISSLQPEDFATYYCQQGATLPYTFGPGTKLEIKRTVAAPSVFIFPPSDEQLKSGTASVKCLLNNFYPREAKVQWKVDNALQSGNSQESVTEQDSKDSTYSLSSTLTLSKADYEKHKVYACEVTHQGLSSPVTKSFNRGEC
light 2: QVQLQQPGAELVKPGASVKMSCKASGYTFTSYNMHWVKETPGRGLEWIGAIYPGNGDTSYNQKFKGKATLTADKSSSTAYMQLSSLTSEDSAVYYCARSTYYGGDWYFNVWGAGTLVTVSSASVAAPSVFIFPPSDEQLKSGTASVECLLNNFYPREAKVQWKVDNALQSGNSQESVTEQDSKDSTYSLSSTLTLSKADYEKHKVYACEVTHQGLSSPVTKSFNRGEC
As for B1, the Kd in [1] was 4480 nM; in [2], 901 nM; in assay [3] it was 0.118 nM; in [4], 2310 nM; in assay [5] it was 497 nM; in assay [6] it was 8910 nM.

B2: Rituximab-S239D/I332E (antibody, human IgG1, kappa)
heavy: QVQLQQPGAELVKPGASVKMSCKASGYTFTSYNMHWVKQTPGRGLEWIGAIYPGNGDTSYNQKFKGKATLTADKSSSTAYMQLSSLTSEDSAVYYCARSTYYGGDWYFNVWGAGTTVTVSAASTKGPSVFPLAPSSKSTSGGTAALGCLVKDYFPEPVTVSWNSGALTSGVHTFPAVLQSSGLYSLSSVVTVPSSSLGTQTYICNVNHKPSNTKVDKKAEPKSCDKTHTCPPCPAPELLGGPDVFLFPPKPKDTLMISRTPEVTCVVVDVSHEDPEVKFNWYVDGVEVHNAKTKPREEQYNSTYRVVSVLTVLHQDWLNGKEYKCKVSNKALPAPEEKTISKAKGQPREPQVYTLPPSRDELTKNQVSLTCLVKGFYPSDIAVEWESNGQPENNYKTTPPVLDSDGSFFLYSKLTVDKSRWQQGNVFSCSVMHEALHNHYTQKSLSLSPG
light: QIVLSQSPAILSASPGEKVTMTCRASSSVSYIHWFQQKPGSSPKPWIYATSNLASGVPVRFSGSGSGTSYSLTISRVEAEDAATYYCQQWTSNPPTFGGGTKLEIKRTVAAPSVFIFPPSDEQLKSGTASVVCLLNNFYPREAKVQWKVDNALQSGNSQESVTEQDSKDSTYSLSSTLTLSKADYEKHKVYACEVTHQGLSSPVTKSFNRGEC
In the case of B2, the Kd in assay [1] is 138 nM; in assay [2], 76.8 nM; in [3] it was 0.0266 nM; in assay [4] it was 17.6 nM; in [5], 4.33 nM; in assay [6], 66.8 nM.

B3: Rc66SIDE (antibody, human IgG1, kappa)
light: QIVLSQSPAILSASPGEKVTMTCRASSSVSYIHWFQQKPGSSPKPWIYATSNLASGVPVRFSGSGSGTSYSLTISRVEAEDAATYYCQQWTSNPPTFGGGTKLEIKRTVAAPSVFIFPPSDEQLKSGTASVVCLLNNFYPREAKVQWKVDNALQSGNSQESVTEQDSKDSTYSLSSTLTLSKADYEKHKVYACEVTHQGLSSPVTKSFNRGEC
heavy: QVQLQQPGAELVKPGASVKMSCKASGYTFTSYNMHWVKQTPGRGLEWIGAIYPGNGDTSYNQKFKGKATLTADKSSSTAYMQLSSLTSEDSAVYYCARSTYYGGDWYFNVWGAGTTVTVSAASTKGPSVFPLAPSSKSTSGGTAALGCLVKDYFPEPVTVSWNSGALTSGVHTFPAVLQSSGLYSLSSVVTVPSSSLGTQTYICNVNHKPSNTKVDKKAEPKSCDKTHTCPPCPAPELLGGPDVFLFPPKPKDTLMISRTPEVTCVVVDVSHEDPEVKFNWYVDGVEVHNAKTKPREEQYNSTYRVVSVLTVLHQDWLNGKEYKCKVSNKALPAPEEKTISKAKGQPREPQVYVLPPSRDELTKNQVSLLCLVKGFYPSDIAVEWESNGQPENNYLTWPPVLDSDGSFFLYSKLTVDKSRWQQGNVFSCSVMHEALHNHYTQKSLSLSPGK
chain: CPPCPAPELLGGPDVFLFPPKPKDTLMISRTPEVTCVVVDVSHEDPEVKFNWYVDGVEVHNAKTKPREEQYNSTYRVVSVLTVLHQDWLNGKEYKCKVSNKALPAPEEKTISKAKGQPREPQVYVYPPSRDELTKNQVSLTCLVKGFYPSDIAVEWESNGQPENNYKTTPPVLDSDGSFALVSKLTVDKSRWQQGNVFSCSVMHEALHNHYTQKSLSLSPGK
Take B3: the Kd in assay [7] was determined as 253 nM; in assay [8], 76.8 nM; in assay [9], 46.2 nM; in assay [10], 163 nM; in assay [11] it was 202 nM; in assay [12] it was 255 nM. Besides, in [13], the affinity, expressed as Kd, was 21.4 nM.

B4: Rc66SIDE-P4-Rc66SIDE (antibody, human IgG1, kappa)
light: QIVLSQSPAILSASPGEKVTMTCRASSSVSYIHWFQQKPGSSPKPWIYATSNLASGVPVRFSGSGSGTSYSLTISRVEAEDAATYYCQQWTSNPPTFGGGTKLEIKRTVAAPSVFIFPPSDEQLKSGTASVVCLLNNFYPREAKVQWKVDNALQSGNSQESVTEQDSKDSTYSLSSTLTLSKADYEKHKVYACEVTHQGLSSPVTKSFNRGEC
heavy: QVQLQQPGAELVKPGASVKMSCKASGYTFTSYNMHWVKQTPGRGLEWIGAIYPGNGDTSYNQKFKGKATLTADKSSSTAYMQLSSLTSEDSAVYYCARSTYYGGDWYFNVWGAGTTVTVSAASTKGPSVFPLAPSSKSTSGGTAALGCLVKDYFPEPVTVSWNSGALTSGVHTFPAVLQSSGLYSLSSVVTVPSSSLGTQTYICNVNHKPSNTKVDKKAEPKSCDKTHTCPPCPAPELLGGPDVFLFPPKPKDTLMISRTPEVTCVVVDVSHEDPEVKFNWYVDGVEVHNAKTKPREEQYNSTYRVVSVLTVLHQDWLNGKEYKCKVSNKALPAPEEKTISKAKGQPREPQVYVLPPSRDELTKNQVSLLCLVKGFYPSDIAVEWESNGQPENNYLTWPPVLDSDGSFFLYSKLTVDKSRWQQGNVFSCSVMHEALHNHYTQKSLSLSPGK
chain: CPPCPAPELLGGPDVFLFPPKPKDTLMISRTPEVTCVVVDVSHEDPEVKFNWYVDGVEVHNAKTKPREEQYNSTYRVVSVLTVLHQDWLNGKEYKCKVSNKALPAPEEKTISKAKGQPREPQVYVYPPSRDELTKNQVSLTCLVKGFYPSDIAVEWESNGQPENNYKTTPPVLDSDGSFALVSKLTVDKSRWQQGNVFSCSVMHEALHNHYTQKSLSLSPGK
For B4, the Kd in assay [7] turned out to be 3.17 nM; in assay [8] it was 3.87 nM; in assay [9] it was 1.14 nM; in [10], 1.05 nM; in assay [11], 4.93 nM; in assay [12], 2.54 nM. Besides, the Kd in assay [14] and in [13] was less than 0.001 nM throughout.

B5: Rc66SIDE-P16-Rc66SIDE (antibody, human IgG1, kappa)
light: QIVLSQSPAILSASPGEKVTMTCRASSSVSYIHWFQQKPGSSPKPWIYATSNLASGVPVRFSGSGSGTSYSLTISRVEAEDAATYYCQQWTSNPPTFGGGTKLEIKRTVAAPSVFIFPPSDEQLKSGTASVVCLLNNFYPREAKVQWKVDNALQSGNSQESVTEQDSKDSTYSLSSTLTLSKADYEKHKVYACEVTHQGLSSPVTKSFNRGEC
heavy: QVQLQQPGAELVKPGASVKMSCKASGYTFTSYNMHWVKQTPGRGLEWIGAIYPGNGDTSYNQKFKGKATLTADKSSSTAYMQLSSLTSEDSAVYYCARSTYYGGDWYFNVWGAGTTVTVSAASTKGPSVFPLAPSSKSTSGGTAALGCLVKDYFPEPVTVSWNSGALTSGVHTFPAVLQSSGLYSLSSVVTVPSSSLGTQTYICNVNHKPSNTKVDKKAEPKSCDKTHTCPPCPAPELLGGPDVFLFPPKPKDTLMISRTPEVTCVVVDVSHEDPEVKFNWYVDGVEVHNAKTKPREEQYNSTYRVVSVLTVLHQDWLNGKEYKCKVSNKALPAPEEKTISKAKGQPREPQVYVLPPSRDELTKNQVSLLCLVKGFYPSDIAVEWESNGQPENNYLTWPPVLDSDGSFFLYSKLTVDKSRWQQGNVFSCSVMHEALHNHYTQKSLSLSPGK
chain: CPPCPAPELLGGPDVFLFPPKPKDTLMISRTPEVTCVVVDVSHEDPEVKFNWYVDGVEVHNAKTKPREEQYNSTYRVVSVLTVLHQDWLNGKEYKCKVSNKALPAPEEKTISKAKGQPREPQVYVYPPSRDELTKNQVSLTCLVKGFYPSDIAVEWESNGQPENNYKTTPPVLDSDGSFALVSKLTVDKSRWQQGNVFSCSVMHEALHNHYTQKSLSLSPGK
As to B5, the Kd in assay [7] was 0.556 nM; in assay [8], 2.71 nM; in assay [9], 0.257 nM; in assay [10], less than 0.001 nM; in assay [11], 1.83 nM; in [12] it was 0.808 nM. Also, the Kd in assay [14] and in [13] was less than 0.001 nM throughout.
